Laboratory results taken from article PMC12142464, “High-light-inducible proteins control associations between chlorophyll synthase and the Photosystem II biogenesis factor Ycf39” (Plant Physiology, 2025).
Several values for one entry are separate records, joined by “and”; a condition that tells them apart may be missing. Identical values can stand only once.

T1: 3xFLAG-tagged chlorophyll synthase ChlG (Synechocystis sp. PCC 6803, UniProt Q55145 1-324)
T1 construct: Chlorophyll synthase ChlG, Synechocystis sp; PCC 6803, made instead of the native enzyme; Isolated complexes carry chlorophyll and carotenoids; also called f.ChlG; FLAG-tagged ChlG
T1 sequence (looked up): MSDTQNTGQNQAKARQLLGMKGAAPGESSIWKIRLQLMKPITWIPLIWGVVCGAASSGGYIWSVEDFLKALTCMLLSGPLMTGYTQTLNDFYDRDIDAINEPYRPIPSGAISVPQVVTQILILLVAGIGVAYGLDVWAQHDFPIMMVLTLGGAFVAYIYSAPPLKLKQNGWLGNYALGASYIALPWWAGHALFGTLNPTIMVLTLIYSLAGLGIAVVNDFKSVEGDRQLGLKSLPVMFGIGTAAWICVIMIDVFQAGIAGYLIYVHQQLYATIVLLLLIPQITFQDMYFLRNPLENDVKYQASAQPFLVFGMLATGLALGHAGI

B1: High-light-inducible protein C (native) (natural protein, UniProt P73563 1-47, looked up)
chain: MNNENSKFGFTAFAENWNGRLAMIGFSSALILELVSGQGVLHFFGIL
notes: High-light-inducible protein HliC (5.2 kDa), Synechocystis sp; PCC 6803; also called HliC; ScpB; source: endogenous, Synechocystis solubilised membranes (high light)
B2: High-light-inducible protein D (native) (natural protein, UniProt P72932 1-57, looked up)
chain: MSEELQPNQTPVQEDPKFGFNNYAEKLNGRAAMVGFLLILVIEYFTNQGVLAWLGLR
notes: High-light-inducible protein HliD (6.5 kDa), Synechocystis sp; PCC 6803; also called HliD; ScpE; source: endogenous, Synechocystis solubilised membranes

Legend:
Conditions in all cases: partners not purified
[1] = biological target: B2; test: co-IP; f.ChlG isolated with anti-FLAG resin from membranes solubilised with 1% n-dodecyl-β-D-maltoside and 1% glycol-diosgenin; eluate resolved by 2D CN (A8-35 amphipol)/SDS-PAGE, CBB stain; strains f.chlG/ΔchlG (HL 2 h), f.chlG/ΔchlG/ΔhliC (HL 2 h), f.chlG/ΔchlG/ΔhliC/Δycf39 (NL)
[2] = biological target: T1, 3xFLAG-tagged chlorophyll synthase ChlG; test: affinity purification with mass spectrometry; f.ChlG anti-FLAG pulldown from f.chlG/ΔchlG cells grown under NL; quantitative MS with ^15N-labeled internal standard
[3] = biological target: T1, 3xFLAG-tagged chlorophyll synthase ChlG; test: affinity purification with mass spectrometry; f.ChlG anti-FLAG pulldown from f.chlG/ΔchlG/ΔhliC cells, HL 16 h; quantitative MS with ^15N-labeled internal standard
[4] = biological target: T1, 3xFLAG-tagged chlorophyll synthase ChlG; test: affinity purification with mass spectrometry; f.ChlG anti-FLAG pulldown from f.chlG/ΔchlG cells, HL 16 h; quantitative MS with ^15N-labeled internal standard
[5] = biological target: T1, 3xFLAG-tagged chlorophyll synthase ChlG; test: co-IP; f.ChlG isolated with anti-FLAG resin from membranes solubilised with 1% n-dodecyl-β-D-maltoside and 1% glycol-diosgenin; eluate resolved by 2D CN (A8-35 amphipol)/SDS-PAGE, CBB stain; strains f.chlG/ΔchlG (HL 2 h), f.chlG/ΔchlG/ΔhliC (HL 2 h), f.chlG/ΔchlG/ΔhliC/Δycf39 (NL)
[6] = biological target: T1, 3xFLAG-tagged chlorophyll synthase ChlG; test: affinity purification with mass spectrometry; f.ChlG anti-FLAG pulldown from f.chlG/ΔchlG/ΔhliC cells grown under NL; quantitative MS with ^15N-labeled internal standard

stoichiometry N [1] [HliC per HliD]	stoichiometry N [2] [per 1 ChlG]	stoichiometry N [3] [per 1 ChlG]	stoichiometry N [4] [per 1 ChlG]	stoichiometry N [6] [per 1 ChlG]	Binder	stoichiometry N [5]
~1	–	–	–	–	B1	–
–	1.54	1.51	1.12	1.47	B2	~1 HliD per f.ChlG (G-D2-G complex) and ~2 HliD per f.ChlG (G-D2 complex)
